This note sets out measurements from US10047131B2, “Peptides and combination of peptides for use in immunotherapy against ovarian cancer and other cancers” (immatics biotechnologies GmbH, priority 2015, dated 2018).

The assay deals with HLA-A*02:01 (Homo sapiens, UniProt P04439, D140Y/D185E/D98H/E176V/E277Q/G131W/G231S/I119V/I121R/I166T/I218V/L300P/L318F/N151K/N90K/P208A/P217A/Q86G/Q94H/R138H/R169H/T345S). The assay is described as follows: MHC binding assay (UV-ligand exchange, ELISA of exchange yield). The conditions noted are these: binding to HLA-A*02:01, UV-ligand exchange. In short, it runs like this:
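Peptide–MHC complexes made by UV-ligand exchange, where a UV-cleavable peptide is replaced by the test peptide. Exchange yield measured by ELISA: complexes diluted 100-fold on streptavidin-coated plates, stabilized complexes detected with HRP anti-β2m, TMB read at 450 nm.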
Turning to “488 (FLAEDPKVTL; listed as Homo sapiens) [compound 488]”, the “Peptide exchange (MHC class I binding score, peptide exchange yield)” value (“Peptide exchange” below) is on record as ““+++” (≥50 = +++)”. To “489 (KMWEELPEVV; listed as Homo sapiens) [compound 489]” belongs ““+++” (≥50 = +++)”.

Consider “490 (FLLQHVQEL; listed as Homo sapiens) [compound 490]”, for which the “Peptide exchange” value was ““+++” (≥50 = +++)”. To “491 (GLNDRSDAV; listed as Homo sapiens) [compound 491]” belongs ““++” (≥20% = ++)”; to “492 (SLFDGFADGLGV; listed as Homo sapiens) [compound 492]”, ““+++” (≥50 = +++)”. To “493 (GLLGEKTQDLIGV; listed as Homo sapiens) [compound 493]” belongs ““+++” (≥50 = +++)”; to “494 (ALQPEPIKV; listed as Homo sapiens) [compound 494]”, ““++” (≥20% = ++)”; to “495 (FIFSEKPVFV; listed as Homo sapiens) [compound 495]”, ““+++” (≥50 = +++)”. To “496 (FLVEKQPPQV; listed as Homo sapiens) [compound 496]” belongs ““+++” (≥50 = +++)”. “497 (GLLEKLTAI; listed as Homo sapiens) [compound 497]”: the “Peptide exchange” value was ““+++” (≥50 = +++)”.

On to “498 (KLWTGGLDNTV; listed as Homo sapiens) [compound 498]”, for which the “Peptide exchange” value was ““+++” (≥50 = +++)”. With “499 (KIFDIDEAEEGV; listed as Homo sapiens) [compound 499]”, the “Peptide exchange” value was ““++” (≥20% = ++)”. To “500 (SLMEDQVLQL; listed as Homo sapiens) [compound 500]” belongs ““+++” (≥50 = +++)”. For the substance “501 (LLDPNVKSIFV; listed as Homo sapiens) [compound 501]”, the “Peptide exchange” value was ““+++” (≥50 = +++)”.

In the case of “502 (RLLAQVPGL; listed as Homo sapiens) [compound 502]”, the “Peptide exchange” value is reported as ““+++” (≥50 = +++)”.

Turning to “503 (SLNHFTHSV; listed as Homo sapiens) [compound 503]”, the “Peptide exchange” value is on record as ““+++” (≥50 = +++)”. To “504 (GLSDGNPSL; listed as Homo sapiens) [compound 504]” belongs ““++” (≥20% = ++)”; to “505 (SLAPGDVVRQV; listed as Homo sapiens) [compound 505]”, ““++” (≥20% = ++)”; to “506 (KLLGKVETA; listed as Homo sapiens) [compound 506]”, ““+++” (≥50 = +++)”. To “507 (KLIDDQDISISL; listed as Homo sapiens) [compound 507]” belongs ““+++” (≥50 = +++)”.

For the substance “508 (ILAQEQLVVGV; listed as Homo sapiens) [compound 508]”, the “Peptide exchange” value is reported as ““+++” (≥50 = +++)”. For the substance “509 (FLFDTKPLIV; listed as Homo sapiens) [compound 509]”, the “Peptide exchange” value is ““+++” (≥50 = +++)”. To “510 (KLYSVVSQL; listed as Homo sapiens) [compound 510]” belongs ““++” (≥20% = ++)”; to “511 (FLDPYCSASV; listed as Homo sapiens) [compound 511]”, ““++” (≥20% = ++)”; to “512 (SLSEIVPCL; listed as Homo sapiens) [compound 512]”, ““+++” (≥50 = +++)”.
